According to US20220363752A1 (VERSEAU THERAPEUTICS, published 2022):
Primed or numbered codes have the meaning given here. Biotin′ = not defined here

How the values were obtained:
[1] = molecular target: T1, biotinylated human LRRC25-His protein (human, UniProt Q8N386 21-165, biotinylated (sites not given)); assay: ELISA, 20 nM antibody, biotinylated antigen on streptavidin plate
T1 construct: also called Biotin LRRC25-His; biotinylated LRRC25 protein
Method: (§1) To establish if functional chimera anti-LRRC25 antibodies recognize particular regions of LRRC25, ELISA experiments were performed using 10 plate-immobilized 16- to 20-mer overlapping LRRC25(ECD) biotin peptides (Table 7). Biotinylated human LRRC25-His served as a positive control. A typical ELISA was performed by coating overnight at 4° C., 3 ug/mL/25 ul per well of streptavidin (Jackson Immunoresearch, Cat. #016-030-084) in PBS in half-area high binding microtiter wells (Corning Cat. #3690). […] Biotin peptides or biotinylated human LRRC25-His protein were added in duplicate (2 ug/mL/25 ul per well) in assay buffer (blocking buffer containing 0.05% tween 20) and the plate incubated for 45 min at 37° C. The plate was washed as before, 20 nM anti-LRRC25 antibodies in assay buffer added in duplicate into appropriate wells, and the plate incubated as before. The plate was washed and HRP-conjugated secondary antibody in assay buffer added [25 ul per well; goat anti-human IgG (Jackson Immunoresearch, Cat. #715-035-150)], and incubated as before. Antibody bound to plate-immobilized peptide(s) or protein was determined at A450 nm using HRP substrate (3,3′,5,5′-tetramethylbenzidine (TMB); eBioscience; Cat. #00-4201-56); 100 μl/well).

[2] = molecular target: T2, LRRC25(96-115) biotin peptide (human, not fully specified; N-terminal acetyl; C-terminal GGK-Biotin; native Cys changed to Ser); assay: as above
T2 construct: also called Biotin LRRC25 (96-115) peptide
T2 peptide: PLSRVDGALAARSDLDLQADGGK
Method: as §1

[3] = molecular target: T3, LRRC25(21-40) biotin peptide (human, not fully specified; N-terminal NH2; C-terminal GGK-Biotin; native Cys changed to Ser); assay: peptide ELISA
T3 peptide: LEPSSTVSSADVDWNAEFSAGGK
Method: as §1

[4] = molecular target: T4, LRRC25(36-55) biotin peptide (human, not fully specified; N-terminal NH2; C-terminal GGK-Biotin; native Cys changed to Ser); assay: peptide ELISA
T4 peptide: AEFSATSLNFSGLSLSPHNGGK
Method: as §1

[5] = molecular target: T5, LRRC25(126-145) biotin peptide (human, not fully specified; N-terminal acetyl; C-terminal GGK-Biotin; native Cys changed to Ser); assay: peptide ELISA
T5 peptide: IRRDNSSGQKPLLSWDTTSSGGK
Method: as §1

[6] = molecular target: T6, LRRC25(111-130) biotin peptide (human, not fully specified; N-terminal acetyl; C-terminal GGK-Biotin; native Cys changed to Ser); assay: peptide ELISA
T6 peptide: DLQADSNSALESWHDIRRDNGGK
Method: as §1

[7] = molecular target: T7, LRRC25(141-159) biotin peptide (human, not fully specified; N-terminal acetyl; C-terminal GGK-Biotin; native Cys changed to Ser); assay: peptide ELISA
T7 peptide: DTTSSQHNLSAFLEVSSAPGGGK
Method: as §1

[8] = molecular target: T8, LRRC25(51-69) biotin peptide (human, not fully specified; N-terminal acetyl; C-terminal GGK-Biotin); assay: peptide ELISA
T8 peptide: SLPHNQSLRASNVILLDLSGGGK
Method: as §1

[9] = molecular target: T9, LRRC25(66-85) biotin peptide (human, not fully specified; N-terminal acetyl; C-terminal GGK-Biotin); assay: peptide ELISA
T9 peptide: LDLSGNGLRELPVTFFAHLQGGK
Method: as §1

[10] = molecular target: T10, LRRC25(81-100) biotin peptide (human, not fully specified; N-terminal acetyl; C-terminal GGK-Biotin); assay: peptide ELISA
T10 peptide: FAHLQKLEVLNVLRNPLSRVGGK
Method: as §1

[11] = molecular target: T11, LRRC25(150-165) biotin peptide (human); assay: peptide ELISA
T11 peptide: Ac-SAFLEVSSAPGLASATGG-{Biotin′}
Method: as §1

[12] = molecular target: T12, His-tagged human LRRC25 extracellular domain protein, human LRRC25-His (human, UniProt Q8N386 21-165); assay: ELISA, plate-immobilized antigen
T12 construct: The entry holds the extracellular domain, a GSG linker and the His tag; also called LRRC25(ECD)-HIS
Method: (§2) To establish the relative binding strengths of anti-LRRC25 antibodies against human LRRC25, and their cross-reactivity with cynomolgus monkey LRRC25, antibody binding curve analyses were performed and EC50 values against plate-immobilized recombinant human and cyno LRRC25 proteins were determined.
(§3) A typical ELISA was performed by coating overnight in PBS, pH 7.4, at 4° C. in high binding microtiter wells with 1 ug/mL/100 ul per well of human LRRC25-His or cyno LRRC25-His. An anti-human LRRC25 antibody (2A3, LS Bio, LS-C174039-100) and anti-HIS-HRP (Miltenyi Biotec; 130-092-783) served as coating controls for the human and cyno LRRC25 proteins, respectively. […] Anti-LRRC25 antibodies were added (100 ul per well) at 500 nM and serially diluted 3-fold in assay buffer (1% skimmed milk in PBS, pH 7.4). The plate was incubated with gentle agitation for 1 h at room temperature. The plate was washed 3× and HRP-conjugated secondary antibody in assay buffer added [100 ul per well; goat anti-human IgG (Jackson Immunoresearch, cat #715-035-150)], and the plate was incubated as before. Antibody bound to plate-immobilized LRRC25(ECD)-HIS was determined at A450 nm using HRP substrate (3,3′,5,5′-tetramethylbenzidine (TMB); eBioscience; 00-4201-56); 100 μl/well).

[13] = molecular target: T13, His-tagged cynomolgus monkey LRRC25 extracellular domain protein, cyno LRRC25-His (cynomolgus monkey); assay: ELISA, plate-immobilized antigen
T13 construct: The entry holds the extracellular domain, a GSG linker and the His tag
Method: as §2, §3

[14] = molecular target: T2, LRRC25(96-115) biotin peptide; assay: peptide ELISA
Method: as §1

[15] = molecular target: T13, His-tagged cynomolgus monkey LRRC25 …; assay: ELISA, plate-immobilized cyno LRRC25-His
Method: as §3

T12 sequence (Q8N386 other isoform, or with tags, fused parts or gaps): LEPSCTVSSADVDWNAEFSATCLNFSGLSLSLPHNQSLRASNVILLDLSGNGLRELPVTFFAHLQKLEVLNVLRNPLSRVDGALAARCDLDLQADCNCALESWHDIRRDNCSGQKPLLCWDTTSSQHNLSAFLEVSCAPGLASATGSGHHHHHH
T1 sequence (Q8N386 other isoform, or with tags, fused parts or gaps): as above
T13 sequence (chain, as listed by the source limits assumed): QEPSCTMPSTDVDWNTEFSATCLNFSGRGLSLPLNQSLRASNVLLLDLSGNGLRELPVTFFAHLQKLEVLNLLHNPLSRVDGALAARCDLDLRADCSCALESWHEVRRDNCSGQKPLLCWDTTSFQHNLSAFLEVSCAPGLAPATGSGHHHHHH

B1: anti-LRRC25 chimeric antibody 1A01 (antibody, human IgG4, V domains shown)
VH: EVKLLESGGGLVKPGGSLKLSCAASGFTFSSYAMSWVRQTPEKRLEWVASISRGGNTYYPDSVKGRFTISRDNARNILYLQMSSLRSEDTAMYYCARGNYGNSPFAYWGQGTLVTVSA
VL: DIVMTQSPASLAVSLGQRATISCRASKSVSTSGYSYMHWYQQKPGQPPKLLIYLASNLESGVPARFSGSGSGTDFTLNIHPVEEEDAATYYCQHSRELPFTFGSGTKLEIKR
notes: also called mAb 1A01
[1]
  absorbance (A450): 0.456 A450
[2]
  absorbance (A450): 2.33 A450
[3]
  binding result: no binding (tested: 20 nM)
[4]
  binding result: no binding (tested: 20 nM)
[5]
  binding result: no binding (tested: 20 nM)
[6]
  binding result: no binding (tested: 20 nM)
[7]
  binding result: no binding (tested: 20 nM)
[8]
  binding result: no binding (tested: 20 nM)
[9]
  binding result: no binding (tested: 20 nM)
[10]
  binding result: no binding (tested: 20 nM)
[11]
  binding result: no binding (tested: 20 nM)
[12]
  EC50: 4.1 nM
[13]
  EC50: > 500 nM

B2: anti-LRRC25 chimeric antibody 1C10 (antibody, human IgG4, V domains shown)
VH: EEKLDESGGGLVKPGGSLKLSCAASGFTFSSYAMSWVRQTPEKRLEWVASISRGGNTYYPDSVKGRFTISRDNARNILYLQMSSLRSEDTAMFYCARGDYGSSLFAYWGQGTLVTVSA
VL: DIVMTQAAFSNPVTLGTSASISCRSSKSLLHSNGITYLYWYLQKPGQSPQLLIYQMSNLASGVPDRFSSSGSGTDFTLRISRVEAEDVGVYYCAQNLELPFTFGSGTKLEIKR
[1]
  absorbance (A450): 0.421 A450
[2]
  absorbance (A450): 0.334 A450
[3]
  binding result: no binding (tested: 20 nM)
[4]
  binding result: no binding (tested: 20 nM)
[5]
  binding result: no binding (tested: 20 nM)
[6]
  binding result: no binding (tested: 20 nM)
[7]
  binding result: no binding (tested: 20 nM)
[8]
  binding result: no binding (tested: 20 nM)
[9]
  binding result: no binding (tested: 20 nM)
[10]
  binding result: no binding (tested: 20 nM)
[11]
  binding result: no binding (tested: 20 nM)
[12]
  EC50: 73.4 nM
[13]
  EC50: ~1000 nM

B3: anti-LRRC25 chimeric antibody 1E11 (antibody, human IgG4, V domains shown)
VH: EVQLLETGGGLVKPGGSLKLSCAASGFTFSSSAMSWVRQTPEKRLEWVTSISRGGNTYYPDSVKGRFTISRDNARNILYLQMSSLRSEDTAMYYCARGQELRLFAYWGQGTLVTVSA
VL: DIVMTQDAFSNPVTLGTSASISCRSSKSLLHSNGITYLYWYLQKPGQSPQLLIYQMSNLASGVPDRFSSSGSGTDFTLRISRVEAEDVGVYYCAQNLELPFTFGSGTKLEIKR
[1]
  absorbance (A450): 1.89 A450
[2]
  absorbance (A450): 2.65 A450
[3]
  binding result: no binding (tested: 20 nM)
[4]
  binding result: no binding (tested: 20 nM)
[5]
  binding result: no binding (tested: 20 nM)
[6]
  binding result: no binding (tested: 20 nM)
[7]
  binding result: no binding (tested: 20 nM)
[8]
  binding result: no binding (tested: 20 nM)
[9]
  binding result: no binding (tested: 20 nM)
[10]
  binding result: no binding (tested: 20 nM)
[11]
  binding result: no binding (tested: 20 nM)
[12]
  EC50: 0.58 nM
[13]
  EC50: ~500 nM

B4: anti-LRRC25 chimeric antibody 3E08 (antibody, human IgG4, V domains shown)
VH: EVKLLESGGGLVKPGGSLKLSCAASGFTLSSYAMSWVRQTPEKRLEWVASISRSNTTYYPDSVKGRFTISRDNAKNILYLQMSSLRSEDTAMYYCARGVLLRPFASWGQGTLVTVSA
VL: DIVMTQDAFSNPVTLGTSASISCRSSKSLLHSNGITYLYWYLQKPGQSPQLLIYQMSNLASGVPDRFSSSGSGTDFTLRISRVEAEDVGVYYCAQNLELPLTFGAGTKLELKR
[1]
  absorbance (A450): 0.152 A450
[2]
  absorbance (A450): 0.052 A450
[3]
  binding result: no binding (tested: 20 nM)
[4]
  binding result: no binding (tested: 20 nM)
[5]
  binding result: no binding (tested: 20 nM)
[6]
  binding result: no binding (tested: 20 nM)
[7]
  binding result: no binding (tested: 20 nM)
[8]
  binding result: no binding (tested: 20 nM)
[9]
  binding result: no binding (tested: 20 nM)
[10]
  binding result: no binding (tested: 20 nM)
[14]
  binding result: no binding (tested: 20 nM)
[11]
  binding result: no binding (tested: 20 nM)
[12]
  EC50: ~1000 nM
[15]
  binding result: no binding (tested: 500 nM)

B5: anti-LRRC25 chimeric antibody 1B03 (antibody, human IgG4, V domains shown)
VH: EVQLVESGGGLVKPGGSLKLSCAASGFTFSSYAMSWVRQTPEKRLEWVASISRGGNTYYPDSMKGRFTISRDNARNILYLQMSSLRSEDTAMYYCARGQELRLFAYWGQGTLVTVSA
VL: QILLTQSPASLAVSLGQRATISCRASESVDSYGNSFMHWYQQKPGQPPKLLIYLASNLESGVPARFSGSGSRTDFTLTIDPVEADDAATYYCQQNNEDPWTFGGGTKLEIKR
[1]
  absorbance (A450): 1.88 A450
[2]
  absorbance (A450): 1.64 A450
[3]
  binding result: no binding (tested: 20 nM)
[4]
  binding result: no binding (tested: 20 nM)
[5]
  binding result: no binding (tested: 20 nM)
[6]
  binding result: no binding (tested: 20 nM)
[7]
  binding result: no binding (tested: 20 nM)
[8]
  binding result: no binding (tested: 20 nM)
[9]
  binding result: no binding (tested: 20 nM)
[10]
  binding result: no binding (tested: 20 nM)
[11]
  binding result: no binding (tested: 20 nM)
[12]
  EC50: 1.3 nM
[13]
  EC50: 42.5 nM
